Data: patent US7301014B2, “Nucleic acid molecule encoding a novel estrogen receptor beta variant” (Wyeth, priority 2002, dated 2007)
“Also recorded” adds a separate entry of the source.

B1: ERβ: wild-type estrogen receptor beta, expressed from expression plasmid (protein, UniProt Q92731 1-530, looked up)
Estrogen receptor beta: MDIKNSPSSLNSPSSYNCSQSILPLEHGSIYIPSSYVDSHHEYPAMTFYSPAVMNYSIPSNVTNLEGGPGRQTTSPNVLWPTPGHLSPLVVHRQLSHLYAEPQKSPWCEARSLEHTLPVNRETLKRKVSGNRCASPVTGPGSKRDAHFCAVCSDYASGYHYGVWSCEGCKAFFKRSIQGHNDYICPATNQCTIDKNRRKSCQACRLRKCYEVGMVKCGSRRERCGYRLVRRQRSADEQLHCAGKAKRSGGHAPRVRELLLDALSPEQLVLTLLEAEPPHVLISRPSAPFTEASMMMSLTKLADKELVHMISWAKKIPGFVELSLFDQVRLLESCWMEVLMMGLMWRSIDHPGKLIFAPDLVLDRDEGKCVEGILEIFDMLLATTSRFRELKLQHKEYLCVKAMILLNSSMYPLVTATQDADSSRKLAHLLNAVTDALVWVIAKSGISSQQQSMRLANLLMLLSHVRHASNKGMEHLLNMKCKNVVPVYDLLLEMLNAHVLRGCKSSITGSECSPAEDSKSKEGSQNPQSQ
B2: ERβcx2: novel human estrogen receptor beta variant; C-terminal 61 amino acids of wild-type ERβ replaced by unique 7 amino acids; tested as expression plasmid (protein)
chain: KVFSQLLSQDMNIKNSPSSLNSPSSYNCSQSILPLEHGSIYIPSSYVDSHHEYPAMTFYSPAVMNYSIPSNVTNLEGGPGRQTTSPNVLWPTPGHLSPLVVHRQLSHLYAEPQKSPWCEARSLEHTLPVNRETLKRKVSGNRCASPVTGPGSKRDAHFCAVCSDYASGYHYGVWSCEGCKAFFKRSIQGHNDYICPATNQCTIDKNRRKSCQACRLRKCYEVGMVKCGSRRERCGYRLVRRQRSADEQLHCAGKAKRSGGHAPRVRELLLDALSPEQLVLTLLEAEPPHVLISRPSAPFTEASMMMSLTKLADKELVHMISWAKKIPGFVELSLFDQVRLLESCWMEVLMMGLMWRSIDHPGKLIFAPDLVLDRDEGKCVEGILEIFDMLLATTSRFRELKLQHKEYLCVKAMILLNSSMYPLVTATQDADSSRKLAHLLNAVTDALVWVIAKSGISSQQQSMRLANLLMLLSHVRHARLYIWALKMFAALKQILRPAFPSSRECFPYCVPLMSMALSQRVHDINKVFHYFGFXKKKKKKKXXXXKKGRPLRIPR
modifications: not fully specified; X: residue not identified in the source
notes: novel human estrogen receptor beta variant; C-terminal 61 amino acids of wild-type ERβ replaced by unique 7 amino acids; tested as expression plasmid

What was measured:
Type in all cases: cell-based, human
[1] = test system: ERE-tk-Luciferase reporter in HepG2 cells; assay: Transactivation of ERE-tk-Luciferase reporter by estrogen receptor variants, transient transfection; set-up: dose or concentration left out as unconfirmed; settings: HepG2 cells transfected with receptor expression plasmid; stimulation with E2 (17b-estradiol) vs ethanol vehicle, 24 hrs; normalized to β-galactosidase
Description: (§1) The estrogen response element (ERE) containing reporter, ERα, and ERβ expression plasmids have been described previously (Bodine, et al J Cell Biochem 1997; 65: 368-387 and Bhat et al. J Steroid Biochem Mol Biol 1998; 67(3):233-40). The ERβcx2 expression plasmid was constructed by cloning a BstXI/Xbal fragment of the original ERβcx2 clone (ef1-3/pCR 2.1) into the ERβ expression plasmid digested with the same restriction enzymes. The sequence of the clone was confirmed by sequence analysis. An SV40-β gal plasmid (Promega, Madison, Wis.) was used to normalize transfections.
(§2) Cells were transfected with lipofectamine 2000 and incubated in the presence or absence of estrogen for 24 hrs. Luciferase expression was monitored in the cell lysates. Transient transfections were performed in HepG2 cells maintained in DMEM supplemented with 10% fetal bovine serum. Twenty-four hours prior to transfection, cells are seeded in phenol red-free (PRF) DMEM containing 10% charcoal-stripped serum (csFBS), into collagen-coated 6 well plates (Biocoat, Becton Dickenson). […] 24 hrs later, […] luciferase activity was quantitated in an automated ML 1000 Luminometer (Dynex Technologies, Chantilly, Va.,). β-galactosidase activity was measured in cell lysates to normalize for differences in transfection efficiency. […]

[2] = test system: ERα signaling pathway; assay: Cotransfection of ERE-tk reporter with ERα and increasing amounts of ERβcx2 expression plasmid (dominant negative activity); settings: ERE-tk reporter cotransfected with ERα; E2 ligand activation; luciferase measured in 48 hrs; FIG. 9
Description: as §1
as §2, with “serum.” for “serum. Twenty-four hours prior to transfection, cells are seeded in phenol red-free (PRF) DMEM containing 10% charcoal-stripped serum (csFBS), into collagen-coated 6 well plates (Biocoat, Becton Dickenson).”
(§3) In these experiments, the ERE-tk reporter was cotransfected with either ERα or ERβ and increasing amounts of the ERβcx2 expression plasmid. Luciferase acitivity was measured in 48 hrs. […]

[3] = test system: ERβ signaling pathway; assay: Cotransfection of ERE-tk reporter with ERβ and increasing amounts of ERβcx2 expression plasmid (dominant negative activity); settings: ERE-tk reporter cotransfected with ERβ; E2 ligand activation; luciferase measured in 48 hrs; FIG. 10
Description: as §1
as §2, with “serum.” for “serum. Twenty-four hours prior to transfection, cells are seeded in phenol red-free (PRF) DMEM containing 10% charcoal-stripped serum (csFBS), into collagen-coated 6 well plates (Biocoat, Becton Dickenson).”
as §3

Row | Molecule | ligand-activated transcription of the ERE-reporter (luciferase activity), induction [1] | luciferase activity of E2-activated ERα with increasing amounts of the ERβcx2 expression construct [2] | signaling through E2-activated ERβ (luciferase) with increasing amounts of the ERβcx2 expression construct [3]
1 | B1 | 8.0 fold | – | –
2 | B2 | unable to induce transcription; also recorded: unchanged | diminished | reduced
